T1: G9a and GLP (Homo sapiens, UniProt Q96KQ7+Q9H9B1)
T1 sequence (Q96KQ7 2-1210 limits assumed): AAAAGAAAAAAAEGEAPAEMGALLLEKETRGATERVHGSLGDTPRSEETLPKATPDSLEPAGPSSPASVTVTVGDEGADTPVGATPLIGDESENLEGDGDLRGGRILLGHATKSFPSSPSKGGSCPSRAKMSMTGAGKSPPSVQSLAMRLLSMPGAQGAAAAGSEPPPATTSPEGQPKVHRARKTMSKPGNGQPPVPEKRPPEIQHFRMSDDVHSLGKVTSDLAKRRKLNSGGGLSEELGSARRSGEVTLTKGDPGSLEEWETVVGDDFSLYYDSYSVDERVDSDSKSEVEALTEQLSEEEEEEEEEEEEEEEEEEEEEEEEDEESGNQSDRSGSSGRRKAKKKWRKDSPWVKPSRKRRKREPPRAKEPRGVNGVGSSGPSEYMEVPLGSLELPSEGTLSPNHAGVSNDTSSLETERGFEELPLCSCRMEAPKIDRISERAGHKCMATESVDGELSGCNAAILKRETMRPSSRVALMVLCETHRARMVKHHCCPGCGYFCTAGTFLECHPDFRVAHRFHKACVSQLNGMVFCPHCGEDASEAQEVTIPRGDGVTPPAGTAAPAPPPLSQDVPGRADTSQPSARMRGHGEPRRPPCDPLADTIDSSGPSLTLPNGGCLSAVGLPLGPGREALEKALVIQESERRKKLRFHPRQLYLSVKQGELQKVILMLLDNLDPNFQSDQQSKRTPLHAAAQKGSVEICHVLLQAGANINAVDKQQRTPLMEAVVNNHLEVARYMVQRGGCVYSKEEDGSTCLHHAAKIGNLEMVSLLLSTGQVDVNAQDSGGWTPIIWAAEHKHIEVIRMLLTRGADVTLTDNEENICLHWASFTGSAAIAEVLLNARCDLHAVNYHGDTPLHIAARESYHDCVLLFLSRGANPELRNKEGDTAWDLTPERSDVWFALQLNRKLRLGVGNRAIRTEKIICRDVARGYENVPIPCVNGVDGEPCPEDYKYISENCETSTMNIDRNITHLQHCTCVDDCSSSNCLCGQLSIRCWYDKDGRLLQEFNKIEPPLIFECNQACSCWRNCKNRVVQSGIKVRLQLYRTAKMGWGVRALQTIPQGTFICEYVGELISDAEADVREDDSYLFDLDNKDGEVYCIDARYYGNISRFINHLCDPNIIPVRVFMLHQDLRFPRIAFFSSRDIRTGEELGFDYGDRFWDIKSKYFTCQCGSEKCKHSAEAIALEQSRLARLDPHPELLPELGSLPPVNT
T1 sequence (Q9H9B1 2-1298 limits assumed): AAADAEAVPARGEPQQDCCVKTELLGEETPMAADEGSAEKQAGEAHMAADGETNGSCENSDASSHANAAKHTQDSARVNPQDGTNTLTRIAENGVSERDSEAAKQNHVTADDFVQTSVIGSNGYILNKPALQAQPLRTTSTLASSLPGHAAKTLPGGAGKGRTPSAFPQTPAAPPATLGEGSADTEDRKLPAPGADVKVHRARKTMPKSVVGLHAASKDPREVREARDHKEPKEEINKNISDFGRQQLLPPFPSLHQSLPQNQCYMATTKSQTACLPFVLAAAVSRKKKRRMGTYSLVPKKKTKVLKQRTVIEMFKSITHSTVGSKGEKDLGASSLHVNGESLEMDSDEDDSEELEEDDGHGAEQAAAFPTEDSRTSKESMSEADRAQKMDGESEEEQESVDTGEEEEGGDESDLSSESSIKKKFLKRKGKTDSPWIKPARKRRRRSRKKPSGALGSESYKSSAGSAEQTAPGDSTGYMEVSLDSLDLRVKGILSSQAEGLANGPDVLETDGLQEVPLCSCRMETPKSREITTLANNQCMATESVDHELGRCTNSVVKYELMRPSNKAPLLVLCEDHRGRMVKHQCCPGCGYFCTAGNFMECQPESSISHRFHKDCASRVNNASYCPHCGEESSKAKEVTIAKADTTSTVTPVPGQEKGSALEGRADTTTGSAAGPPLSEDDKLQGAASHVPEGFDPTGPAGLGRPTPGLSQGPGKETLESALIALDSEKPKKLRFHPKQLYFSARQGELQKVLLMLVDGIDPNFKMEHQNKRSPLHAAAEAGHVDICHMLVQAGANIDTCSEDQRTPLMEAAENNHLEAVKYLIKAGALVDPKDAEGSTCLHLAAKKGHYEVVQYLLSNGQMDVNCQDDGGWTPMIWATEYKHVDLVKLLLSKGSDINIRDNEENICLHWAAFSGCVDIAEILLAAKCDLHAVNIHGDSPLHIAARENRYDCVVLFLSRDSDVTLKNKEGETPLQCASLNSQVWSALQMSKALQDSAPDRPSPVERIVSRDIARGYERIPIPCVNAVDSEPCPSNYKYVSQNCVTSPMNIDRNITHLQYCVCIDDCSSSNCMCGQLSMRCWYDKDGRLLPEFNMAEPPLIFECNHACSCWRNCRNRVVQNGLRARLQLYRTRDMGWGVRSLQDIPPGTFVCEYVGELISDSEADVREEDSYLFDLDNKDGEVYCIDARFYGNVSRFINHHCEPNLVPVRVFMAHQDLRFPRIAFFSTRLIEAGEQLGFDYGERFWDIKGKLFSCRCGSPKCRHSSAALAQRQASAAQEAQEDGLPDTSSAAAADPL


Key:
G9a and GLP = target: T1, G9a and GLP; experiment: Triple SILAC pull-down after UNC0638 treatment of 293T cells, DMSO/UNC0638 ratio of protein captured by 3×MBT; type: cell-based; design: endogenous in cells; host or cells: HEK 293T; conditions: for Relative to UNC0638 UNC Heavy / Relative to UNC0638 UNC Light: SILAC ratio DMSO/UNC0638 of protein pulled down with 3xMBT; for Relative to UNC0638 UNC Heavy: UNC0638 in heavy SILAC media; for Relative to UNC0638 UNC Light: UNC0638 in light SILAC media; for Relative to UNC0638 Average: average of UNC Light and UNC Heavy experiments;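 for all read-outs here: mass spectrometry (Q-Exactive) SILAC quantitation, DMSO/UNC0638 ratio computed after subtracting 3×MBTD355N mutant pull-down background, only proteins with at least twofold 3×MBT over mutant signal considered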
3×MBT domain of L3MBTL1 = experiment: Triple SILAC pull-down, 3xMBT/3xMBTD355N ratio (cytoplasmic, nuclear and chromatin fractions of 293T cells); type: binding, human; conditions: SILAC ratio, pull-down 3xMBT vs 3xMBTD355N; for 3xMBT/D355N UNC Heavy: experiment with UNC0638 in heavy SILAC media; for 3xMBT/D355N UNC Light: experiment with UNC0638 in light SILAC media;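 for all read-outs here: proteins quantified with MaxQuant, requiring at least two unique peptides and quantification in both label directions, normalized to the mean of proteins from a digested loading control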

Row | Molecule | Relative to UNC0638 UNC Heavy (G9a and GLP) | Relative to UNC0638 UNC Light (G9a and GLP) | Relative to UNC0638 Average (G9a and GLP) | Candidate G9a/GLP target (G9a and GLP; reduced association with 3xMBT after UNC0638 treatment) | 3xMBT/D355N UNC Heavy (3×MBT domain of L3MBTL1) | 3xMBT/D355N UNC Light (3×MBT domain of L3MBTL1)
1 | DCAF7 (protein, UniProt P61962 1-342, looked up) DDB1- and CUL4-associated …: MSLHGKRKEIYKYEAPWTVYAMNWSVRPDKRFRLALGSFVEEYNNKVQLVGLDEESSEFICRNTFDHPYPTTKLMWIPDTKGVYPDLLATSGDYLRVWRVGETETRLECLLNNNKNSDFCAPLTSFDWNEVDPYLLGTSSIDTTCTIWGLETGQVLGRVNLVSGHVKTQLIAHDKEVYDIAFSRAGGGRDMFASVGADGSVRMFDLRHLEHSTIIYEDPQHHPLLRLCWNKQDPNYLATMAMDGMEVVILDVRVPCTPVARLNNHRACVNGIAWAPHSSCHICTAADDHQALIWDIQQMPRAIEDPILAYTAEGEINNVQWASTQPDWIAICYNNCLEILRV | 0.69 log base 2 | 0.48 log base 2 | 0.59 log base 2 | ✓ | 1.67 log base 2 | 1.31 log base 2
2 | U2AF1 (protein, UniProt Q01081 2-240, looked up) Splicing factor U2AF 35 kDa …: AEYLASIFGTEKDKVNCSFYFKIGACRHGDRCSRLHNKPTFSQTIALLNIYRNPQNSSQSADGLRCAVSDVEMQEHYDEFFEEVFTEMEEKYGEVEEMNVCDNLGDHLVGNVYVKFRREEDAEKAVIDLNNRWFNGQPIHAELSPVTDFREACCRQYEMGECTRGGFCNFMHLKPISRELRRELYGRRRKKHRSRSRSRERRSRSRDRGRGGGGGGGGGGGGRERDRRRSRDRERSGRF | 0.20 log base 2 | 0.08 log base 2 | 0.14 log base 2 | – | 3.19 log base 2 | 2.52 log base 2

Now from value to molecule, other results behind:

Row | Relative to UNC0638 UNC Heavy (G9a and GLP) | Relative to UNC0638 UNC Light (G9a and GLP) | Relative to UNC0638 Average (G9a and GLP) | Candidate G9a/GLP target (G9a and GLP; reduced association with 3xMBT after UNC0638 treatment) | Molecule | 3xMBT/D355N UNC Heavy (3×MBT domain of L3MBTL1) | 3xMBT/D355N UNC Light (3×MBT domain of L3MBTL1)
3 | 0.21 log base 2 | 0.08 log base 2 | 0.14 log base 2 | – | RBM26 (protein, UniProt Q5T8P6 1-1007, looked up) RNA-binding protein 26: MVSKMIIENFEALKSWLSKTLEPICDADPSALAKYVLALVKKDKSEKELKALCIDQLDVFLQKETQIFVEKLFDAVNTKSYLPPPEQPSSGSLKVEFFPHQEKDIKKEEITKEEEREKKFSRRLNHSPPQSSSRYRENRSRDERKKDDRSRKRDYDRNPPRRDSYRDRYNRRRGRSRSYSRSRSRSWSKERLRERDRDRSRTRSRSRTRSRERDLVKPKYDLDRTDPLENNYTPVSSVPSISSGHYPVPTLSSTITVIAPTHHGNNTTESWSEFHEDQVDHNSYVRPPMPKKRCRDYDEKGFCMRGDMCPFDHGSDPVVVEDVNLPGMLPFPAQPPVVEGPPPPGLPPPPPILTPPPVNLRPPVPPPGPLPPSLPPVTGPPPPLPPLQPSGMDAPPNSATSSVPTVVTTGIHHQPPPAPPSLFTADTYDTDGYNPEAPSITNTSRPMYRHRVHAQRPNLIGLTSGDMDLPPREKPPNKSSMRIVVDSESRKRTIGSGEPGVPTKKTWFDKPNFNRTNSPGFQKKVQFGNENTKLELRKVPPELNNISKLNEHFSRFGTLVNLQVAYNGDPEGALIQFATYEEAKKAISSTEAVLNNRFIKVYWHREGSTQQLQTTSPKVMQPLVQQPILPVVKQSVKERLGPVPSSTIEPAEAQSASSDLPQNVTKLSVKDRLGFVSKPSVSATEKVLSTSTGLTKTVYNPAALKAAQKTLLVSTSAVDNNEAQKKKQEALKLQQDVRKRKQEILEKHIETQKMLISKLEKNKTMKSEDKAEIMKTLEVLTKNITKLKDEVKAASPGRCLPKSIKTKTQMQKELLDTELDLYKKMQAGEEVTELRRKYTELQLEAAKRGILSSGRGRGIHSRGRGAVHGRGRGRGRGRGVPGHAVVDHRPRALEISAFTESDREDLLPHFAQYGEIEDCQIDDSSLHAVITFKTRAEAEAAAVHGARFKGQDLKLAWNKPVTNISAVETEEVEPDEEEFQEESLVDDSLLQDDDEEEEDNESRSWRR | 2.44 log base 2 | 2.00 log base 2
4 | 0.09 log base 2 | 0.20 log base 2 | 0.14 log base 2 | – | DENR (protein, UniProt O43583 2-198, looked up) Density-regulated protein: AADISESSGADCKGDPRNSAKLDADYPLRVLYCGVCSLPTEYCEYMPDVAKCRQWLEKNFPNEFAKLTVENSPKQEAGISEGQGTAGEEEEKKKQKRGGRGQIKQKKKTVPQKVTIAKIPRAKKKYVTRVCGLATFEIDLKEAQRFFAQKFSCGASVTGEDEIIIQGDFTDDIIDVIQEKWPEVDDDSIEDLGEVKK | 2.50 log base 2 | 3.36 log base 2

— patent US20140274782A1, “AFFINITY REAGENTS AND METHODS FOR DETECTION, PURIFICATION, AND PROTEOMIC ANALYSIS OF METHYLATED PROTEINS” (The Board of Trustees of the Leland Stanford Junior …, priority 2013, published 2014)
